The record followed here is paper PMC1420302.

The target in this assay is SF3b1-NT-His6 (human) (UniProt O75533).
Sequence of UniProt O75533 (O75533 1-511): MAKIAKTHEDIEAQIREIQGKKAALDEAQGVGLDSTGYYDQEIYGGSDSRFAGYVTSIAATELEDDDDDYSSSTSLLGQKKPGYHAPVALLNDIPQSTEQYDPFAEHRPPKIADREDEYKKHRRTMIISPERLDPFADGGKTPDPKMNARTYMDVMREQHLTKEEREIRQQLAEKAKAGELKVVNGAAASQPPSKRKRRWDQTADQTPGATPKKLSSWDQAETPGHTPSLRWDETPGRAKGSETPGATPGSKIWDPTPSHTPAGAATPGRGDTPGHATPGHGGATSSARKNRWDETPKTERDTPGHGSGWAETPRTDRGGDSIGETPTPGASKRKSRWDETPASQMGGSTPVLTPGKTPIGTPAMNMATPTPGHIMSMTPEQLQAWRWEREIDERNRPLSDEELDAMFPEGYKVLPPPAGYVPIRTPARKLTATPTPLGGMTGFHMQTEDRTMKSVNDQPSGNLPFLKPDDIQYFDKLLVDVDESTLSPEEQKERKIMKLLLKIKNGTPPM

For the substance “GST-DYRK1A-ΔC (from UniProt Q63470 1-763) (enzyme)”, the approximate Km of phosphorylation, from velocities of phosphate incorporation at 0.7 and 7 μM substrate was 2.75 µM. Next, “cyclin E/CDK2 (from UniProt P24864 1-410; P24941 1-298) (complex)”: 3.51 µM.
